This experiment deals with human tumor necrosis factor-alpha (hTNFα) (human) (UniProt P01375). The experiment can be described thus: cell-based or functional assay.
human tumor necrosis factor-alpha (hTNFα) (human), sequence (P01375 77-233): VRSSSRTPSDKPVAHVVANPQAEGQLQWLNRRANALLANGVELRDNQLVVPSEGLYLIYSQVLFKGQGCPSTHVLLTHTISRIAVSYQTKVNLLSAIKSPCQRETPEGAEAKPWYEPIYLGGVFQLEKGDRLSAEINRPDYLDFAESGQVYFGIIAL

B1: chimeric mouse/human IgG1 anti-platelet mAb (7E3) (antibody, INN chains, looked up, V domains shown)
VH: EVQLQQSGTVLARPGASVKMSCEASGYTFTNYWMHWVKQRPGQGLEWIGAIYPGNSDTSYIQKFKGKAKLTAVTSTTSVYMELSSLTNEDSAVYYCTLYDGYYVFAYWGQGTLVTVSA
VL: EIVLTQSPVTLSVTPGDSVSLSCRASRDISNNLHWFQQTSHESPRLLIKYASQSMSGIPSRFSGSGSGTDFTLSINSVETEDFGMYFCQQTNSWPYTFGGGTKLEIK
modifications: IgG1
On to B1, for which the IL-6 secreted by FS-4 fibroblasts; 4 µg/ml antibody, rhTNF 0.3 ng/ml worked out at 1.6 ng/mL; the IL-6 secreted by FS-4 fibroblasts; 4 µg/ml antibody, rhTNF 1.5 ng/ml came out at 1.96 ng/mL; the IL-6 secreted by FS-4 fibroblasts; 4 µg/ml antibody, rhTNF 7.5 ng/ml amounted to 2.16 ng/mL.

The record behind these values is patent US20060140946A1.
